{"source": "patent US20250313621A1", "key": {"[1]": {"target": "Wildtype human PAR 1 (human) (UniProt P25116)", "sequence (P25116 42-425 limits assumed)": "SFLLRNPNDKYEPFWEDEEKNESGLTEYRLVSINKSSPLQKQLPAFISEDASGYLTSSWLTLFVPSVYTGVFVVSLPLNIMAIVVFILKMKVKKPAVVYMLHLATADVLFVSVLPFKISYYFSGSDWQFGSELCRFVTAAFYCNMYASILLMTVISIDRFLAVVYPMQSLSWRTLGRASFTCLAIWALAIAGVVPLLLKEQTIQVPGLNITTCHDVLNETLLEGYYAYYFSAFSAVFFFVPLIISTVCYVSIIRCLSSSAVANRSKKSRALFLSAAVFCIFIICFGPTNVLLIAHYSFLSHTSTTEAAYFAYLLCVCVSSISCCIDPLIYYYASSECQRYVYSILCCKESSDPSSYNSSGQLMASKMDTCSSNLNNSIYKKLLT", "test": "cell-based or functional assay"}, "[2]": {"target": "Wildtype human PAR2 expressed on cells (human) (UniProt P55085)", "sequence (P55085 37-397 limits assumed)": "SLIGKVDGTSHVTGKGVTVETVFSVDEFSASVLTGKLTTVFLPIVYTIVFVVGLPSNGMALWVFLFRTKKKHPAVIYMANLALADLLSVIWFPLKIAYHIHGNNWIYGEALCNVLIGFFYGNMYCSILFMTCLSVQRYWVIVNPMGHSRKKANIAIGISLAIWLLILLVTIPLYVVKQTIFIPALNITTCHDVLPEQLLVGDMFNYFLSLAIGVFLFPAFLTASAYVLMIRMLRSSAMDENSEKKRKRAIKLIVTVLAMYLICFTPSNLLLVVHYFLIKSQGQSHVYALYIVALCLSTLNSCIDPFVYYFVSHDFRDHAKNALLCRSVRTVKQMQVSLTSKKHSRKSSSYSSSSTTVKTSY", "test": "cell-based or functional assay"}, "[3]": {"target": "V5His-huPAR2 on Flp-In CHO cells (human) (UniProt P55085)", "sequence (P55085 37-397 limits assumed)": "as above", "test": "FACS titration on CHO_V5HIS-huPAR2 cells versus CHO parental cells (flat), RLU, axis Ab [nM]"}}}
{"substance": "MAB3949 (antibody)", "values": [{"measurement": "Human PAR1 SFLLR IC50, IP-One", "setting": "[1]", "value": "> 1000", "unit": "nM"}, {"measurement": "SFLLR fold inhibition, human PAR1, IP-One", "setting": "[1]", "value": 0, "unit": "fold"}, {"measurement": "% Max Inhibition, AP challenge, IP-One", "setting": "[2]", "value": 100, "unit": "%"}, {"measurement": "% Max Inhibition, Bovine Trypsin challenge, IP-One", "setting": "[2]", "value": 0, "unit": "%"}, {"measurement": "EC50", "setting": "[3]", "value": 6.8, "unit": "nM"}]}
